Molecular target: GvpT (B. megaterium)
Experiment: SDS-PAGE and Western blot

## GvpT (natural protein)
  stoichiometry N: 2

From article doi:10.1101/2023.07.23.550228
